From patent publication US20100210517A1
Positions of bridges follow the written chain, without caps; N, C: chain ends. No end group written: not given here.

Biological target: recombinant human LRP1 ligand binding cluster II (amino acids 786-1165, C-terminal Fc) (human)
Assay: solid-phase binding assay, receptor coated on plate

Chain of recombinant human LRP1 ligand binding cluster II (amino acids 786-1165, C-terminal Fc) (human) (Q07954 786-1165): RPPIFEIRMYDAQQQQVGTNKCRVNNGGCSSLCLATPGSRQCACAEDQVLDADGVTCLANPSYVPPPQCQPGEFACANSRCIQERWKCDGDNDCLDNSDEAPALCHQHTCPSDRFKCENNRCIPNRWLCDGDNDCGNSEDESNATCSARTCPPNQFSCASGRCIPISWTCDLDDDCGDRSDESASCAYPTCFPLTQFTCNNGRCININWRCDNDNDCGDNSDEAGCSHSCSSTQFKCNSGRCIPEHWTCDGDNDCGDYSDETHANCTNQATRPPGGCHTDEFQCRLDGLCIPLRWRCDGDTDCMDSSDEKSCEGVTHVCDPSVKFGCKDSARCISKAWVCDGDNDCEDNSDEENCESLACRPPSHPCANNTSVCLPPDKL

Kd [nM]	Binder
21	mRAP-14c (disulfide 1-60) peptide: CEAKIEKHNHYQKQLEIAHEKLRHAESVGDGERVSRSREKHALLEGRTKELGYTVKKHGC
3.5	Heptide (disulfide 1-67 (inferred)) peptide: CGKHFEAKIEKHNHYQKQLEIAHEKLRHAESVGDAERVSRSREKHALLEGRTKELGYTVKKHLQDACG
4 to 6	mRAP-8c (disulfide 1-67 (inferred)) peptide: CGKHFEAKIEKHNHYQKQLEIAHEKLRHAESVGDGERVSRSREKHALLEGRTKELGYTVKKHLQDGC
